Data published in the nanobody polyreactivity screen of Harvey et al. (2022).

Test: yeast display, Sf9 membrane polyspecificity reagent, FACS + sequencing; frameworks hold sequencing errors
How it was run: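 A synthetic nanobody library was expressed on Saccharomyces cerevisiae BJ5465 by galactose induction for 36–48 hours. The library was stained for 1 hour at 4 °C with 10% biotinylated, detergent-solubilized Sf9 membrane reagent and enriched with streptavidin microbeads before FACS. Low and high (top ~1%) gates were set on anti-HA fluorescence for expression and streptavidin fluorescence for reagent binding, and each polyreactivity label reflects the gate of origin.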

Sequence | polyreactivity (PSR sort gate)
QVQHVESGGGLVQAGGSLRLSCAASGITFWSNAKGWYRQAPGKEREMVAAITSSGGSTYYADSVKGRFTISRDNAKNTVYLHMNSLKPEDTAVYYCAAPISSSAGWDSYDYWGQGTQVTVSS | low polyreactivity
QVQHVESGGGLVQAGGSLRLSCAASGLNFTRYVMGWYRQAPGKERELVAVISSGGSTYYADSVKGRFTISRDNAKNTVYLQMNSLKPEDTAVYYCAAYLRYSQVTYDYWGQGTQVTVSS | high polyreactivity
QVQHVESGGGLVQAGGSLRLSCAASGLTSVINAMGWYRQAPGKERELVAAMTNGGSTSYADSVKGRFTISRDNAKNPVYLQMNSLKPEDTAVYYWAADIVSSTDYPFDYWGQGTQVTVSS | low polyreactivity
QVQHVESGGGLVQAGGSLRLSCAASGNIFGLNAMGWYRQAPGKERELVAAISKSGGSTFYADSVKGRFTISRDNAKNTVYLQMNSLKPEDTAVYYCAADHRYHWAYPRGYYYWGQGTQVTVSS | high polyreactivity
QVQHVESGGGLVQAGGSLRLSCAASGNIIPYNAKAWYRQAPGKERELVATISSGGSTYYADSVKGRFTISRDNAKNTVYLQMNSLKPEDTAVYYCAARGRYPYLYGYWGQGTQVTVSS | high polyreactivity
QVQHVESGGGLVQAGGSLRLSCAASGRIFAYNAMGWYRQAPGKERELVADISSGGNTYYADSVKGRFTISRDNAKNTVYLQMNSLKPEDTAVYYCAADIALYTHYHRIFDYWGQGTQVTVSS | low polyreactivity
QVQHVESGGGLVQAGGSLRLSCAASGRIFPAYAMGWYRQATGKERELVATISSTGSRSYYADSVKGRFTISRDNAKNTVYLQMNSLKPEDTAVYYCAARQRYKVGGLYGVDYWGQGTQVTVSS | high polyreactivity
QVQHVESGGGLVQAGGSLRLSCAASGRIFSGYAMGWYRQAPGKERELVAAINRSGGSTYYADSVKGRFTISRDNAKNTVYLQMNSLKPDDTAVYYCAADKSDVYGYFRQSESYGYWGQGTQVTVSS | low polyreactivity
QVQHVESGGGLVQAGGSLRLSCAASGRIFTTYAMGWYIQAPGKERELVAAISRSGGSTYYADSVKGRFTISRDNAKNTVYLQMNSLKPEDTAVYYCAAVPTSNSFRSSFYYWGQGTQVTVSS | high polyreactivity
QVQHVESGGGLVQAGGSLRLSCAASGRIFYFNAMGWYRPAPGKERELVAAISSSSGSTNYADSVQGRFTISRDNAKNTVYLQMNSLKPEATAVYYCAADGYYQDYTFEYDYWGQGTQVTVSS | low polyreactivity
QVQHVESGGGLVQAGGSLRLSCAASGRIFYNYAMGWYRQAPGKEREFVADIDFNGGSTYYADSGKGRFTISRDNAKTTVYLQMNSLKPDDTAVYYSAAEQDDARYNAWWIGPMYSWGQGTQVTVSS | low polyreactivity
QVQHVESGGGLVQAGGSLRLSCAASGRIFYSNVMGWYRQAPGKERELVAAISGRTGGTYYADSEKGRFTISRDNAKNTVYLQMNSMKPEDTAVYFCAARVIYYYGSGPYDYWGQGTQVTVSS | low polyreactivity
QVQHVESGGGLVQAGGSLRLSCAASGRIISYNAMGWYRQAPGKERELVAAISWGGGSTYYADSVKGRFTISRDNAKNTVYLQMNSLKPEDTAVYYCAKGWYRIKRNDYWGQGTQVTVSS | low polyreactivity
QVQHVESGGGLVQAGGSLRLSCAASGRTFDWNAMGWYRQAPGKERELVAAITYSGGGTYYADSVKGRFTISRDNAKNTVYLQMNSLKPEETAVYYCAAGYPGTWSYYYWGQGTQVTVSS | low polyreactivity
QVQHVESGGGLVQAGGSLRLSCAASGRTFHQNAMGWYRQAPGKERELVATITAGSGSTYYADSVKGRFTISGDNAKNTVYLQMNSVKPEDTAVYFWNAKWTLYQSDYWYYIYDYCGQGTQVTVSS | low polyreactivity
QVQHVESGGGLVQAGGSLRLSCAASGRTFKYYAMGWDRQAPGKERELVAAITRRGTSTYYADSVKGRFTISRDNAKNTVYLQMNSLKPEDTAVYYCNKDSPVTYSSRYGYWGQGTQVTVSS | high polyreactivity
QVQHVESGGGLVQAGGSLRLSCAASGRTFNLKAMGWYRQAPGKERELVAAISWSGGSTYYADSVKGRFTISRDNAKNTVYLQMNSLKPEDTAVYYCAAETYAYLFHTYDYWGQGTQVTVSS | low polyreactivity
QVQHVESGGGLVQAGGSLRLSCAASGRTFPLNAMGWYRQAPGKERELVYAITWSGGRTYYADSVKGRFTISRDYAKNTVYLQMNSLKPEDTAVYYCAAKRTTWKIQSGYDYWGQGTQVTVSS | low polyreactivity
QVQHVESGGGLVQAGGSLRLSCAASGRTFRDYVMGWYRQAPGKETALVAAISTRGASTYYADSVKGRFTISRDNANNTVYLQMNRLKPEDTAVYYCAARSTRRGNEYDYWGQRTQVTVSS | high polyreactivity
QVQHVESGGGLVQAGGSLRLSCAASGRTFRRNVMGWYRQAPGKERELVAAISSGANTNYADSVKGRFTISRDNAKNTVYLQMNSLKPEDTAVYYCNARWQEPLKYDYWGQGTQVTVSS | low polyreactivity
QVQHVESGGGLVQAGGSLRLSCAASGRTFTHYAMGWYRQAPGKERELVAVITTGGSTYYADSVKGRFTISRDNAKNTVYLQMNSLKPEDTAVYYCAATALSGLGYWGQGTQVTVSS | low polyreactivity
QVQHVESGGGLVQAGGSLRLSCAASGRTLLGNAMGRYRQAPGKEREFVAAISYRGGSTYYADSVKGRFTISRDNAKNTVYLQMNSLKPEDTAVYYCAASSFKYSRFDYWGQGTQVTVSS | low polyreactivity

Sequence | polyreactivity (PSR sort gate)
QVQHVESGGGLVQAGGSLRLSCAASGRTLRYYAMGGYRRAPGKERELVAAITKSGGSPYYADSVKGRFTISRDNAKNTVYLQMYSLKPEDTAVYYCNKVTYSRAQYIGGAGYYWGQGTQVTVSS | high polyreactivity
QVQHVESGGGLVQAGGSLRLSCAASGSIFAGYAMGWYRQAPGKEWELVAAISRRGGRKYYADSVKGRFTISRDNAKNTVYLQMNSLKPEDTAVYYCAVTTPRGPYGYDYWGQGTQVTVSS | high polyreactivity
QVQHVESGGGLVQAGGSLRLSCAASGSIFAGYANGWYRKAPGKERELVARITDRGGSTDYADSVKGRYTISRDNAKNTVYLQMNSLKPEDTAVYSCAKRGDRYEKRPRDYWGQGTQVTVSS | low polyreactivity
QVQHVESGGGLVQAGGSLRLSCAASGSIFAYNAMGCYRQARGKERELVAAITSSGGSTYYADSVKGRFTISRDNAKNTVYLPMNSLKPEDTAVYYCNAYGYFKKYNYWGQGTQVTVSS | high polyreactivity
QVQHVESGGGLVQAGGSLRLSCAASGSIFGTYAMGWYRQAPGKERELVAAIRWSSGSTYYADSVKGRFTISRDNAKYTVYLLMNSLKPEDTAVYYCNAEYVYYWLGATFGYWGQGTQVTVSS | high polyreactivity
QVQHVESGGGLVQAGGSLRLSCAASGSIFIANAMGWYRQAPGKERELVAVINWGDGSTYADSVKGRFTISRDNAKNTVYLQMNSLKPEDTAVYYCNAPDEVNDVRYDYWGQGTQVTVSS | low polyreactivity
QVQHVESGGGLVQAGGSLRLSCAASGSIFKPYAMGWYRLAPGKEREFVAAITSSDGTTYYADSVKGRFTISRDNAKNTVYVQMNSLKPEDTAVYYCNAEYYAKYVPFTKYYYWGQGTQVTVSS | low polyreactivity
QVQHVESGGGLVQAGGSLRLSCAASGSIFNYYDMGWYRQAPGKEREFVARITIGGSSTNYADSVKGRFTISRDNAKNTVYLQMNSLTPEDTAVYYCAAAQYGIFFSQMDYWGQGTQVTVSS | low polyreactivity
QVQHVESGGGLVQAGGSLRLSCAASGSIFRIYAMGWYRQAPGKERELVAAISVSTGSRTYYADSVKGRFTISRDNAKNTVYLQMNSLKPEDTAVYYCNAESYYDYNYWGQGTQVTVSS | low polyreactivity
QVQHVESGGGLVQAGGSLRLSCAASGSIFRKNAMGWYRQAPGKERELVAAISSGGGGTYYADSVKGRFTISRDNAKNTVYLQMNSLKPEDTAVFYCNKREGKGGNTKYDYWGQGTQVTVSS | low polyreactivity
QVQHVESGGGLVQAGGSLRLSCAASGSIFRYYTMGWYRQAPGKERELVAAISYSGGRTYYADSVKGRFTISRDNAKNTVYLQMNSLKPEDTAVYYCAAKLLQLRGRGYEYWGQGTQVTVSS | high polyreactivity
QVQHVESGGGLVQAGGSLRLSCAASGSIFRYYVMGWYSQAPGKERELGAAISSGGRTYYADSVKGRFTISRDNAKNTVYLQMNSLKPEDTAVYYCNAQGLFYWEMDYWGQGTQVTVSS | high polyreactivity
QVQHVESGGGLVQAGGSLRLSCAASGSILGGNAMGWYRQAPGKERELVADISGSGDSTYYADSVKGRFTISRDNAKNTVYLQMNSLKPEETAVYYCAVDYDSYWYGTYVNEYDYWGQGTQVTVSS | low polyreactivity
QVQHVESGGGLVQAGGSLRLSCAASGSILRPNVMGWYRQAPGKDRELVARISSRGVNTYYADSVKGRFTISRDNAKNTVYLQMNSLKPEDTAVYYCNARRAQYYWNRSPKYDYWGQGTQVTVSP | high polyreactivity
QVQHVESGGGLVQAGGSLRLSCAASGSTFGKNTRGWSRQAPGKERELVAAISSRGGSTYYADSGKGRFTISRDNAKNTVYLQMNSLKPEDTAVYYCAAYSVSLGYDYWGQGTQVTVST | high polyreactivity
QVQHVESGGGLVQAGGSLRLSCAASGSTFRRYAMGWYRQAPGKERELVASITYRGGSTYYADSVKGRFTISRDNAKNTVYLQKNSLKPEDTAVYYCSKKGVYGPLIEYWAQGTQVTVSS | high polyreactivity
QVQHVESGGGLVQAGGSLRLSCAASGSTFSPNAMGWYRQAPGKERELVAAIRWRTGTTYYADSVKGRFTISRDNAKNTVYLQMNSLKPEDTAVYYCAAVYKPPNNKYGSAWEYGYWGQGTQVTVSS | high polyreactivity
QVQHVESGGGLVQAGGSLRLSCAASGSTFTDYTMGWYRQAPGIESELVARIRSRGARTYYADSVKGRFTISRDNAKNTVYLQMNSLKPEDTAVYYCNKRWGAHRASPAYDYWGQGTQVTVSS | high polyreactivity
QVQHVESGGGLVQAGGSLRLSCAASGSTFVYYAMGWYRQPPGKERELVAVITRGGRTYYADSVKGRFTISRDNAKNTVYLQMNSLKPEDTAVYYCNKVTPHYHDTGLDYWGQGTQVTVSS | high polyreactivity
QVQHVESGGGLVQAGGSLRLSCAASGSTFWYYDMGWYRQAPGKEMELVAAISGSGGRTYYADSVKGRFTISRDNAKNTVYLQMNSLKPEDTAVYYCAADDYWSADFKYNYWGQGTQVTVSS | low polyreactivity
QVQHVESGGGLVQAGGSLRLSCAASGSTFYFYTMGWYRQAPGKERELVAAITYSGGSTYADSVKGRFTISRDNAKNTDYLQMNSLKPEDTAVYYCAAASYFYLYLLEDYWGQGTQVTVSS | low polyreactivity
